# Measurements: patent US6541008 (UNIVERSITY OF OTAGO, dated 2003)
# T1: VEGFR-3-Ig (human, UniProt P35916 25-775)
# T1 construct: extracellular domain; also called soluble Ig-fusion protein containing the extracellular domain of human VEGFR-3; not shown: Fc portion of human IgG1
# T1 sequence (looked up): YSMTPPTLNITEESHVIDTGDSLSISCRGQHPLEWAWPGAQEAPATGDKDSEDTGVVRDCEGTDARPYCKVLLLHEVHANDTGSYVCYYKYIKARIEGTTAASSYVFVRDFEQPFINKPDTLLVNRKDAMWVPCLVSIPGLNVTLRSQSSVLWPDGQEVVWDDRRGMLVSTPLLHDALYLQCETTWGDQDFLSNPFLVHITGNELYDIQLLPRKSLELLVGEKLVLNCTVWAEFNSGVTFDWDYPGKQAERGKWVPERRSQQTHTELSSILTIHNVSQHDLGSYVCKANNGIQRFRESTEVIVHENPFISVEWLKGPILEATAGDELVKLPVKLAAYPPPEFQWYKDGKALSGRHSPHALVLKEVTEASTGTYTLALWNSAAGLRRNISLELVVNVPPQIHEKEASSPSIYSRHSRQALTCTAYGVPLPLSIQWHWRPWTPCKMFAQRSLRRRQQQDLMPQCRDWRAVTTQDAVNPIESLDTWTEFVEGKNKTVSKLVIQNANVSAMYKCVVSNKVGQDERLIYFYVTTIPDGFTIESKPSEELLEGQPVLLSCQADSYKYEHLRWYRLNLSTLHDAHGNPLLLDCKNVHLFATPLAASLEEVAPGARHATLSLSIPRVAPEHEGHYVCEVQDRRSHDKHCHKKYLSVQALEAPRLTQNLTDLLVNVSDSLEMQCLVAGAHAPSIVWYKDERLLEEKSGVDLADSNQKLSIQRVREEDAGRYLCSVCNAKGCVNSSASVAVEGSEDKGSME
# B1: FLAG-tagged ORFV2-VEGF (ligand)
# chain: DSNTKGWSEVLKGSECKPRPIVVPVSETHPELTSQRFNPPCVTLMRCGGCCNDESLECVPTEEVNVTMELLGASGSGSNGMQRLSFVEHKKCDCRPRFTTTPPTTTRPPRRRR
# notes: Disulfide-linked homodimer, glycosylated; Expressed in COS or 293EBNA cells; also called NZ2; ORVF2-VEGF; not shown: FLAG octapeptide at the C-terminus
# B2: mouse VEGF164 (ligand, UniProt Q00731-2 27-190, looked up)
# chain: APTTEGEQKSHEVIKFMDVYQRSYCRPIETLVDIFQEYPDEIEYIFKPSCVPLMRCAGCCNDEALECVPTSESNITMQIMRIKPHQSQHIGEMSFLQHSRCECRPKKDRTKPENHCEPCSERRKHLFVQDPQTCKCSCKNTDSRCKARQLELNERTCRCDKPRR
# B3: FLAG-tagged NZ10 (ligand)
# chain: DSTKTWSEVFESSKCKPRPTVVPVGEAHPELTSQRFNPQCVTVMRCGGCCNDESLECVPTEEANVTMQLMGASVSGGNGMQHLIFVEHKKCDCKPRLTTTPPTTTRPPRRRR
# notes: Disulfide-linked homodimer, secreted from 293EBNA-1 cells and purified on M2-gel; also called ORFV10-VEGF; not shown: FLAG octapeptide at the C-terminus
# Tests used:
# [1] = biological target: chimeric receptor consisting of the extracellular domain of mouse VEGFR-2 and the transmembrane and … (mouse, UniProt P35918 20-762; P14753 250-507, limits assumed); assay: cell-based or functional assay
# chimeric receptor consisting of the extracellular domain of mouse VEGFR-2 and the transmembrane and …, sequence (P35918 other isoform, or with tags, fused parts or gaps mutant limits assumed): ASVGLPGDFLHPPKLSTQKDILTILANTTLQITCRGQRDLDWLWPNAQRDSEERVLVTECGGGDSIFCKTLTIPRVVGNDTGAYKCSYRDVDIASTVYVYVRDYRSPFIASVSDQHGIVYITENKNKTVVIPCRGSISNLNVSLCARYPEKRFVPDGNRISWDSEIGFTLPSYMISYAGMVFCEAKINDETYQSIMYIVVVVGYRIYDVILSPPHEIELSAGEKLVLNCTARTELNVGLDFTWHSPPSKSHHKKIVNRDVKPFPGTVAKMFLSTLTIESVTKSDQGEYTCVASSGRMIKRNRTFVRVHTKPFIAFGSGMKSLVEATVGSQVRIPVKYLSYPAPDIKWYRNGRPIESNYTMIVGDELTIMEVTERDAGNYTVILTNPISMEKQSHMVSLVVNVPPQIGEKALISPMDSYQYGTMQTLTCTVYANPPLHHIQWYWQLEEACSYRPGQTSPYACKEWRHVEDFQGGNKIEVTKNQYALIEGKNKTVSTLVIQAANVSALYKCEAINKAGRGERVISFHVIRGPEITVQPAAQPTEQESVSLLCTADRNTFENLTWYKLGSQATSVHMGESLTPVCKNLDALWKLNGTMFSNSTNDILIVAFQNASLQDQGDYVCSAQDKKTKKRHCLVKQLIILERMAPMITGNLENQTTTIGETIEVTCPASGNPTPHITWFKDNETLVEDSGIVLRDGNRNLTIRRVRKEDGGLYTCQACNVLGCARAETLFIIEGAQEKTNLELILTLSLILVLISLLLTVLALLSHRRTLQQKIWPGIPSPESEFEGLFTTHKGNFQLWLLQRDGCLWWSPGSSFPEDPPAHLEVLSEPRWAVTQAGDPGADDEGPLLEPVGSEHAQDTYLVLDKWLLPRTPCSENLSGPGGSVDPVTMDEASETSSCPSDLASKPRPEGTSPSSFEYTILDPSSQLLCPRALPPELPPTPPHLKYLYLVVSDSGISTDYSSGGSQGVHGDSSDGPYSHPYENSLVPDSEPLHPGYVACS
# VEGFR-1-Ig [2] = biological target: T2, VEGFR-1-Ig (human, UniProt P17948 27-758); assay: precipitation of 35S-labeled conditioned medium with receptor-Ig on protein A-Sepharose, SDS-PAGE, phosphorimager
# T2 construct: extracellular domain; also called soluble Ig-fusion protein containing the extracellular domain of human VEGFR-1; not shown: Fc portion of human IgG1
# T2 sequence (P17948 27-758): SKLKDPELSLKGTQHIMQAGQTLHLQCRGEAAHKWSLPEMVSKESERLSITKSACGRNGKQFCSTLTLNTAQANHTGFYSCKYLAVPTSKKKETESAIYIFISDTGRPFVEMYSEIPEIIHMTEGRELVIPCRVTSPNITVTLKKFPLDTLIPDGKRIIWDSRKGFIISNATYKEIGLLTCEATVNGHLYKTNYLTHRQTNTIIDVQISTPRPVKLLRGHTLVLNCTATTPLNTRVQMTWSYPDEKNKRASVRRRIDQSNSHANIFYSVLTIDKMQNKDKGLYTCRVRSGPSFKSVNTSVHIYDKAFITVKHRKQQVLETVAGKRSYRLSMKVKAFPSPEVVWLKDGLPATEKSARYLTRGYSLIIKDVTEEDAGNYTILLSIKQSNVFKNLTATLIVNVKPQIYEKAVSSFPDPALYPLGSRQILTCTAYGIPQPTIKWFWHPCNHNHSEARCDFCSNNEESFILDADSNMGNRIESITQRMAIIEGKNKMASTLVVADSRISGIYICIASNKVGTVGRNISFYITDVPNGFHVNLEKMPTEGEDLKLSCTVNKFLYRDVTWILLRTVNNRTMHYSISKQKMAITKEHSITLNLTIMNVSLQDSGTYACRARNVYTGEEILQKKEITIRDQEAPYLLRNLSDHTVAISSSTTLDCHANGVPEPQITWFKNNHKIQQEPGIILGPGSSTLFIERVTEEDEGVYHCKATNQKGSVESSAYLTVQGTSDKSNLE
# Description: (§1) To further assess the interactions between ORFV2-VEGF and the VEGFRs, ORFV2-VEGF was tested for its capacity to bind to soluble Ig-fusion proteins containing the extracellular domains of human VEGFR-1, VEGFR-2 and VEGFR-3. The fusion proteins, designated VEGFR-1-Ig, VEGFR-2-Ig and VEGFR-3-Ig, were transiently expressed in 293 EBNA cells. All Ig fusion proteins were human VEGFRs. Cells were incubated for 24 hours after transfection, washed with DMEM containing 0.2% bovine serum albumin and starved for 24 hours. The fusion proteins were then precipitated from the clarified conditioned medium using protein A-Sepharose beads. The beads were combined with 100 µl of 10x binding buffer (5% bovine serum albumin, 0.2% Tween 20 and 10 µg/ml heparin) and 900 µl of conditioned medium from 293 cells that had been transfected with expression plasmids encoding VEGF, VEGF-DΔNΔC,ORFV2-VEGF or control vector, then metabolically labeled with ^35S-cysteine/methionine for 4 to 16 hours. After 2.5 hours, at room temperature, the Sepharose beads were washed 3 times with binding buffer at 4° C., once with phosphate buffered saline and boiled in SDS-PAGE buffer. Labeled proteins that were bound to the Ig-fusion proteins were analyzed by SDS-PAGE under reducing conditions. Radiolabeled proteins were detected using a phosphorimager analyzer.
# VEGFR-2-Ig = biological target: T3, VEGFR-2-Ig (human, UniProt P35968 20-764); assay: as above
# T3 construct: extracellular domain; also called soluble Ig-fusion protein containing the extracellular domain of human VEGFR-2; not shown: Fc portion of human IgG1
# T3 sequence (P35968 20-764): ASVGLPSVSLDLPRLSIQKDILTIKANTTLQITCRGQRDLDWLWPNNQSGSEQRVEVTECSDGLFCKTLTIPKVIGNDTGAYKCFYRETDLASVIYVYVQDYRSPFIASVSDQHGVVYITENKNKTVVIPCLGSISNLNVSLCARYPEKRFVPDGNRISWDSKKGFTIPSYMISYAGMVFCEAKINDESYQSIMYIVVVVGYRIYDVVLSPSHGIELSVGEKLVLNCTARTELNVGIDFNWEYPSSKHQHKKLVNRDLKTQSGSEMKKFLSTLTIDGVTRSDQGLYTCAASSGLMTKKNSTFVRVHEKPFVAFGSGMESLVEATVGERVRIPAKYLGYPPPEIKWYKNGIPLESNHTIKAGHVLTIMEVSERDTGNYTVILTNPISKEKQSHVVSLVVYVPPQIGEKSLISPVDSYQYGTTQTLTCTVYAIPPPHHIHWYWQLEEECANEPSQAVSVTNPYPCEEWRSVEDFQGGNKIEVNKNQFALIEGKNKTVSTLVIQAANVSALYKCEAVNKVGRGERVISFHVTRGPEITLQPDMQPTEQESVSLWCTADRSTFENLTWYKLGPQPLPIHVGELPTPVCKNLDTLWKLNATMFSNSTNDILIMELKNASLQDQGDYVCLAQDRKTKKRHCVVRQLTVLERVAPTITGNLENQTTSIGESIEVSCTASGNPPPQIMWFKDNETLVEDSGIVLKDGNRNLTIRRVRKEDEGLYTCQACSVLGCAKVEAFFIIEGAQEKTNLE
# Description: as §1
# VEGFR-3-Ig = biological target: T1, VEGFR-3-Ig; assay: as above
# Description: as §1
# VEGFR-1-Ig [3] = biological target: T2, VEGFR-1-Ig; assay: not described; told in Example 3 with the receptor-Ig precipitations
Binder,potency in the Ba/F3 VEGFR-2-EpoR bioassay compared to mouse VEGF [1],binding result (VEGFR-1-Ig [2]),binding result (VEGFR-2-Ig),binding result (VEGFR-3-Ig),binding result (VEGFR-1-Ig [3])
B1,~4 fold less potent than mouse VEGF,no binding,binds,no binding,
B2,,binds,binds,no binding,
B3,,,,,no binding
